According to patent publication US20220090025A1:

Target: CAR (coxsackie and adenovirus receptor) (human) (UniProt P78310)
Test: cell-based or functional assay

UniProt P78310, sequence (P78310 20-365): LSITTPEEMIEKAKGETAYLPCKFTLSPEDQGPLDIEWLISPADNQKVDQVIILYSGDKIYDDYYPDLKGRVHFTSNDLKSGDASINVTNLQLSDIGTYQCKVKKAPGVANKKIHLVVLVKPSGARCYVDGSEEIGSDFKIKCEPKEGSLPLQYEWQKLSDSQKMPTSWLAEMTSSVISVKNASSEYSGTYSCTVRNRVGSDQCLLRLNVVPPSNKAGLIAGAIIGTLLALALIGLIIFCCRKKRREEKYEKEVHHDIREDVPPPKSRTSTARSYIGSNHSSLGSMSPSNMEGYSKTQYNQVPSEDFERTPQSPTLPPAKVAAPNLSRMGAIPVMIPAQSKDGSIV

CAR-specific fiber protein (fiber protein of adenovirus) (ligand)
reduction of GFP transduction of U343 cells by naked type Ad (MOI 20) after pretreatment with fiber protein at 0.2 µg/ml, flow cytometry: 67 % reduced | reduction of GFP transduction of U343 cells by naked type Ad (MOI 20) after pretreatment with fiber protein at 2 µg/ml, flow cytometry: 90 % reduced
